Experimental data as given in patent CN112409479A (INST FOR VIRAL DISEASE CONTROL AND PREVENTION CHINESE …, dated 2021).

Molecular target: T1, 新型冠状病毒S1蛋白 (纯化) (SARS-CoV-2, UniProt P0DTC2 14-685)
T1 construct: domain: S1
Assay: ELISA, purified IgG on coated S1 protein

B1: 人源抗新冠病毒中和性抗体nCoV-121 全抗体IgG (antibody)
light: NFMLTQPHSVSESPGKTVTISCTRSSGSIASNYVQWYQQRPGSSPTTVIYEDNQRPSGVPDRFSGSIDSSSNSASLTISGLKTEDEADYYCQSYDSSNQWVFGGGTKLTVLGQPKAAPSVTLGQPKAAPSVTLFPPSSEELQANKATLVCLISDFYPGAVTVAWKADSSPVKAGVETTTPSKQSNNKYAASSYLSLTPEQWKSHRSYSCQVTHEGSTVEKTVAPTECS
heavy: not shown
dilution still ELISA-positive: ≥ 64000 fold dilution from 0.2mg/ml
